The results in this text go back to US20120177676A1 (COMPLIX, published 2012).

Usually Kd stands for a measure of binding affinity in units of concentration.

This experiment addresses T1, biotinylated C36 peptide bL4_C36 (residues 628 to 663 of HIV-1 HXB2 Env, gp41 HR2) (HIV-1 HXB2, N-terminal biotin attached through the Gly-Ser-Gly-Ser linker; C-terminal amide).
T1 construct: also called C36 derivative
T1 peptide: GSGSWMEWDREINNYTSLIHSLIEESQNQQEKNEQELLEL
Nature of the experiment: ITC, bL4_C36 (50 microM, syringe) titrated into scAB013_N3 (2.46 microM, cell), 1:1 binding model. Background: In ITC the heat of successive injections is recorded.

B1: scAB013_N3 Alphabody, N-terminally appended with a (His)6 tag (designed binder)
chain: HHHHHHAAIAAQQHLIALIQWGIAQLQARIYAMTGGSSGGMSIEEIQKQIAAIQKQIAAIQKQIYRMTGGSSGGMSIQAIQKQLQAIVKQIKAIQKQILAMEA
notes: Expressed in E. coli BL21(DE3) from pET16b and purified by IMAC and SEC; also called gp41 N-trimer-mimicking Alphabody
B1 had a Kd of 150 nM and a ΔH of -7.17 kcal/mol.
